# In IntAct's records for PubMed 31515488:
# B1: Peroxisomal bifunctional enzyme (Homo sapiens), Q08426 (parent)
# chain: MAEYTRLHNALALIRLRNPPVNAISTTLLRDIKEGLQKAVIDHTIKAIVICGAEGKFSAGADIRGFSAPRTFGLTLGHVVDEIQRNEKPVVAAIQGMAFGGGLELALGCHYRIAHAEAQVGLPEVTLGLLPGARGTQLLPRLTGVPAALDLITSGRRILADEALKLGILDKVVNSDPVEEAIRFAQRVSDQPLESRRLCNKPIQSLPNMDSIFSEALLKMRRQHPGCLAQEACVRAVQAAVQYPYEVGIKKEEELFLYLLQSGQARALQYAFFAERKANKWSTPSGASWKTASARPVSSVGVVGLGTMGRGIVISFARARIPVIAVDSDKNQLATANKMITSVLEKEASKMQQSGHPWSGPKPRLTSSVKELGGVDLVIEAVFEEMSLKKQVFAELSAVCKPEAFLCTNTSALDVDEIASSTDRPHLVIGTHFFSPAHVMKLLEVIPSQYSSPTTIATVMNLSKKIKKIGVVVGNCFGFVGNRMLNPYYNQAYFLLEEGSKPEEVDQVLEEFGFKMGPFRVSDLAGLDVGWKSRKGQGLTGPTLLPGTPARKRGNRRYCPIPDVLCELGRFGQKTGKGWYQYDKPLGRIHKPDPWLSKFLSRYRKTHHIEPRTISQDEILERCLYSLINEAFRILGEGIAASPEHIDVVYLHGYGWPRHKGGPMFYASTVGLPTVLEKLQKYYRQNPDIPQLEPSDYLKKLASQGNPPLKEWQSLAGSPSSKL
# B2: Transcription factor 4 (Homo sapiens), P15884 (parent)
# chain: MHHQQRMAALGTDKELSDLLDFSAMFSPPVSSGKNGPTSLASGHFTGSNVEDRSSSGSWGNGGHPSPSRNYGDGTPYDHMTSRDLGSHDNLSPPFVNSRIQSKTERGSYSSYGRESNLQGCHQQSLLGGDMDMGNPGTLSPTKPGSQYYQYSSNNPRRRPLHSSAMEVQTKKVRKVPPGLPSSVYAPSASTADYNRDSPGYPSSKPATSTFPSSFFMQDGHHSSDPWSSSSGMNQPGYAGMLGNSSHIPQSSSYCSLHPHERLSYPSHSSADINSSLPPMSTFHRSGTNHYSTSSCTPPANGTDSIMANRGSGAAGSSQTGDALGKALASIYSPDHTNNSFSSNPSTPVGSPPSLSAGTAVWSRNGGQASSSPNYEGPLHSLQSRIEDRLERLDDAIHVLRNHAVGPSTAMPGGHGDMHGIIGPSHNGAMGGLGSGYGTGLLSANRHSLMVGTHREDGVALRGSHSLLPNQVPVPQLPVQSATSPDLNPPQDPYRGMPPGLQGQSVSSGSSEIKSDDEGDENLQDTKSSEDKKLDDDKKDIKSITSNNDDEDLTPEQKAEREKERRMANNARERLRVRDINEAFKELGRMVQLHLKSDKPQTKLLILHQAVAVILSLEQQVRERNLNPKAACLKRREEEKVSSEPPPLSLAGPHPGMGDASNHMGQM
# B3: Uncharacterized protein C3orf62 (Homo sapiens), Q6ZUJ4 (parent)
# chain: MHYIKTWSLLGEMSEKLRRCRKELTAAIDRAFEGVSYSQECTGQQRLELSAAPLSFSLPVHRLLCRRHPLAACSSAAPFAAVPCAPENENPAFATNHAPVNAKPHALCPERKPLTSKENVLMHSSILAPERESWRTAGEGENWRKENLRKDMERDLKADSNMPLNNSSQEVTKDLLDMIDHTSIRTIEELAGKIEFENELNHMCGHCQDSPFKEEAWALLMDKSPQKATDADPGSLKQAFDDHNIVETVLDLEEDYNVMTSFKYQIE
# B4: Syntenin-2 (Homo sapiens), Q9H190 (parent)
# chain: MSSLYPSLEDLKVDQAIQAQVRASPKMPALPVQATAISPPPVLYPNLAELENYMGLSLSSQEVQESLLQIPEGDSTAVSGPGPGQMVAPVTGYSLGVRRAEIKPGVREIHLCKDERGKTGLRLRKVDQGLFVQLVQANTPASLVGLRFGDQLLQIDGRDCAGWSSHKAHQVVKKASGDKIVVVVRDRPFQRTVTMHKDSMGHVGFVIKKGKIVSLVKGSSAARNGLLTNHYVCEVDGQNVIGLKDKKIMEILATAGNVVTLTIIPSVIYEHMVKKLPPVLLHHTMDHSIPDA
# partner: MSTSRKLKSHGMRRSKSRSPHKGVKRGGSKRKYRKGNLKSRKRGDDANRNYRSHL
# B5: Centrosomal protein of 55 kDa (Homo sapiens), Q53EZ4 (parent)
# chain: MSSRSTKDLIKSKWGSKPSNSKSETTLEKLKGEIAHLKTSVDEITSGKGKLTDKERHRLLEKIRVLEAEKEKNAYQLTEKDKEIQRLRDQLKARYSTTTLLEQLEETTREGERREQVLKALSEEKDVLKQQLSAATSRIAELESKTNTLRLSQTVAPNCFNSSINNIHEMEIQLKDALEKNQQWLVYDQQREVYVKGLLAKIFELEKKTETAAHSLPQQTKKPESEGYLQEEKQKCYNDLLASAKKDLEVERQTITQLSFELSEFRRKYEETQKEVHNLNQLLYSQRRADVQHLEDDRHKTEKIQKLREENDIARGKLEEEKKRSEELLSQVQFLYTSLLKQQEEQTRVALLEQQMQACTLDFENEKLDRQHVQHQLHVILKELRKARNQITQLESLKQLHEFAITEPLVTFQGETENREKVAASPKSPTAALNESLVECPKCNIQYPATEHRDLLVHVEYCSK
# Variants of: B1
# Settings: with tpp2_human TPP2, P29144
row,Variant,effect of a mutation on the interaction
1,I646T,disrupting interaction strength

# Variants of: B1
# Settings: with actb_human ACTB
row,Variant,effect of a mutation on the interaction
1,I646T,disrupting interaction strength

# Variants of: B1
# Settings: with actg_human ACTG1, P63261
row,Variant,effect of a mutation on the interaction
1,I646T,disrupting interaction strength

# Variants of: B1
# Settings: with tnip1_human TNIP1, Q15025
# tnip1_human TNIP1, Q15025, sequence (Q15025 whole entry): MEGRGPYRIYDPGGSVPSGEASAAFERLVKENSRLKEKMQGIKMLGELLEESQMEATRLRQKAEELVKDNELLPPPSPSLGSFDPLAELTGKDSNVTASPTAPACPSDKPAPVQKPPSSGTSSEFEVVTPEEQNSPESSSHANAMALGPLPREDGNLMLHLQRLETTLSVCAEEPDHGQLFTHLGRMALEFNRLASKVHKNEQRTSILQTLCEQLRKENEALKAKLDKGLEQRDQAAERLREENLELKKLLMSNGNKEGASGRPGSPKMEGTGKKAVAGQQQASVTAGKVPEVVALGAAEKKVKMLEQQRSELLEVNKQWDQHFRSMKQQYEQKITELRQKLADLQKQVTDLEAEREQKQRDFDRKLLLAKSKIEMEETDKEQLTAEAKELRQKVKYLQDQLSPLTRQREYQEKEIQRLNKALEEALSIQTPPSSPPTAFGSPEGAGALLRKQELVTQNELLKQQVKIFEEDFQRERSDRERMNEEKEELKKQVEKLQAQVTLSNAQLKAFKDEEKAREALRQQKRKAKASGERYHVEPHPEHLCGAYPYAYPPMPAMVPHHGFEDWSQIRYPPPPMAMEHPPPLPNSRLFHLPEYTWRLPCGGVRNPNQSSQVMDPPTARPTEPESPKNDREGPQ
row,Variant,effect of a mutation on the interaction
1,I646T,disrupting interaction strength

# Variants of: B2
# Settings: with defi6_human DEF6, Q9H4E7
# defi6_human DEF6, Q9H4E7, sequence (Q9H4E7 whole entry): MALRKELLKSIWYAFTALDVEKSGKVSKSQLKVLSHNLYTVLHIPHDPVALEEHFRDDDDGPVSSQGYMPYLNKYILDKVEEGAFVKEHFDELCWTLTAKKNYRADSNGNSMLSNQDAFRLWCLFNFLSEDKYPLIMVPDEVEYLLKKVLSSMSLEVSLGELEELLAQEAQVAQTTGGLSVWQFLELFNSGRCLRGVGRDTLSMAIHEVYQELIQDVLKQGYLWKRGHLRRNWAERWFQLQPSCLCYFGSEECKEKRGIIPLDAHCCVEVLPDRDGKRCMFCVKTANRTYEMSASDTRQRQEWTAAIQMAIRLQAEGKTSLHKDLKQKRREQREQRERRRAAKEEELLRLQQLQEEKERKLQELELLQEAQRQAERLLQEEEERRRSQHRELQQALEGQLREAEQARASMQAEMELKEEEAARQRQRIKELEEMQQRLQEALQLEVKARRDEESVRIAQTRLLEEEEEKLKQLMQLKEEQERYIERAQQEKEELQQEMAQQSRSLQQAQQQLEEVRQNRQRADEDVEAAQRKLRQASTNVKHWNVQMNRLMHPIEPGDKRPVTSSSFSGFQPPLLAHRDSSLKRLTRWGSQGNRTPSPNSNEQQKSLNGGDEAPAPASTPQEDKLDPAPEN
row,Variant,effect of a mutation on the interaction
1,N90S,with no effect

# Variants of: B3
# Settings: with mr1l1_human MRFAP1L1, Q96HT8
# mr1l1_human MRFAP1L1, Q96HT8, sequence (Q96HT8 whole entry): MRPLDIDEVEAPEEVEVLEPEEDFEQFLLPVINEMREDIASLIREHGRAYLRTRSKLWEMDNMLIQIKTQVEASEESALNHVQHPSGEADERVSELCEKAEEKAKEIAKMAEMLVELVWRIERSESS
row,Variant,effect of a mutation on the interaction
1,N142D,with no effect
2,V60M,with no effect
3,E110K,with no effect
4,M203I,with no effect

# Variants of: B4
# Settings: with stp1_human TNP1, P09430
row,Variant,effect of a mutation on the interaction
1,V182M,disrupting interaction strength

# Variants of: B5
# Settings: with pdc6i_human PDCD6IP
row,Variant,effect of a mutation on the interaction
1,E321K,with no effect
2,H57Q,with no effect
3,L59F,with no effect
4,R348K,with no effect
5,A244P,with no effect
6,R138Q,with no effect

# Variants of: B5
# Settings: with dpolm_human POLM
row,Variant,effect of a mutation on the interaction
1,H57Q,with no effect
2,R348K,with no effect
3,A244P,with no effect

# Variants of: B5
# Settings: with tead4_human TEAD4, Q15561
# tead4_human TEAD4, Q15561, sequence (Q15561 whole entry): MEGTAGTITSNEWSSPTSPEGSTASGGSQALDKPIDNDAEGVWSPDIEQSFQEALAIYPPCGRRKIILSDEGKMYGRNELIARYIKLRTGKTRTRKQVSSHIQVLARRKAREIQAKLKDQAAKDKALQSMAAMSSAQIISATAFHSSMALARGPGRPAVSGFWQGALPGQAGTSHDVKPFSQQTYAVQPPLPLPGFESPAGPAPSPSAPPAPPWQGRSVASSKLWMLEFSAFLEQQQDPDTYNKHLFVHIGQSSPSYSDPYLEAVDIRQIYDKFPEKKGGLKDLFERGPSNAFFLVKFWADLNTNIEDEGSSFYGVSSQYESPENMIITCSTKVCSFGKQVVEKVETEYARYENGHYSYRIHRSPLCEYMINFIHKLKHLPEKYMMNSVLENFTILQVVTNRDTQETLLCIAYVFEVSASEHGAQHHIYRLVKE
row,Variant,effect of a mutation on the interaction
1,H57Q,with no effect
2,R348K,with no effect
3,A244P,with no effect

# Variants of: B5
# Settings: with anx11_human ANXA11, P50995
# anx11_human ANXA11, P50995, sequence (P50995 whole entry): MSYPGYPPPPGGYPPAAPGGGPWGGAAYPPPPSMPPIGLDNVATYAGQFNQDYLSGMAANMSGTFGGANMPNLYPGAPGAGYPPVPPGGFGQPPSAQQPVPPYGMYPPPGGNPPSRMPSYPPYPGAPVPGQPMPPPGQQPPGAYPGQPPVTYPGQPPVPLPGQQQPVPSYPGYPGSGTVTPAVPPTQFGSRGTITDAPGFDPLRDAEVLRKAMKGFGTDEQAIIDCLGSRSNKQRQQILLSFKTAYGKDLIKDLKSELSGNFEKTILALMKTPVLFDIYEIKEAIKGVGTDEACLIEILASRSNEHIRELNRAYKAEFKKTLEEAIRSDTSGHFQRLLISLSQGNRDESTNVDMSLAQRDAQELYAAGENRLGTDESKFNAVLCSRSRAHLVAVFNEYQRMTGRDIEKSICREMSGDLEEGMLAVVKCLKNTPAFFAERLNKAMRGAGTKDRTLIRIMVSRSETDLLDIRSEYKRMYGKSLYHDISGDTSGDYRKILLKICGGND
row,Variant,effect of a mutation on the interaction
1,H57Q,with no effect
2,R348K,with no effect
3,A244P,disrupting interaction strength
